Results on 22 sequences are retold here after the DeepSol protein solubility set.

This data set can be described thus: soluble on expression in E. coli; label from the status in PepcDB or PDB records.
As to “MKVPEAAISRLITYLRILEELEAQGVHRTSSEQLGELAQVTAFQVRKDLSYFGSYGTRGVGYTVPVLKRELRHILGLNRKWGLCIVGMGRLGSALADYPGFGESFELRGFFDVDPEKVGRPVRGGVIEHVDLLPQRVPGRIEIALLTVPREAAQKAADLLVAAGIKGILNFAPVVLEVPKEVAVENVDFLAGLTRLSFAILNPKWREEMMG”, the “soluble on expression in E. coli” value is listed as “soluble”.

“MKVVVIDAGHGAKDSGAVGISRKNYEKTFNLAMALKVESILKQNPKLEVVLTRSDDTFLELKQRVKVAENLKANVFVSIHANSSGSSASNGTETYYQRSASKAFANVMHKYFAPATGLTDRGIRYGNFHVIRETTMPAVLLEVGYLSNAKEEATLFDEDFQNRVAQGIADGITEYLDVK”: the “soluble on expression in E. coli” value is reported as “soluble”.

Consider “MKVYIVEHAIGSFAYDEQGKLIDFVLSSKDLGKVVDSLLDNEKGIPLPTTIELIQKIKPEEVVVENEAEIPNLQQLGVKASYEIHNLGSKIFRESLPKIAIETKFASSENDLYSFLYEVSFEYTRRKLRTAASKRDLLAIQAIRAIDDIDKTINLFSERLREWYSIHFPELNKLVEDHELYASIVSKFGHRDEITNTGLDEIGVNKDLSTKILDASKKSIGADITDVDIRSIKMLSDTILELFRIRSELTDYVESVMKEVAPNVTALVGPTLGARLLSLAGSLEDLAKMPASTIQVLGAEKALFRALRKGGKPPKHGVIFQYPAIHTSPRWQRGKIARALAAKLAIAARIDAFSGRFIGDKLNEELKKRIEEIKTKYAQPPPRKPQEQKRKEEERKGKKGGREKRKGRR”, for which the “soluble on expression in E. coli” value is on record as “soluble”.

Turning to “MKWLLLITLSLYSFIVQSAPCGLTNVGEQRGTYILKPLSMKGNLTAEKIENTGNIIECADLQETTNAIKVHFLTQNALRFKVGSRHYIINFPFESDGKKNSASREVIL”, the “soluble on expression in E. coli” value is “soluble”.

As to “MKYIVLLGDGMSDEAVKDLDGKTPLQAAKTPHMDVMARRGRIGLAHTVPKGLPPGSDVANLSVFGYDPRTCYTGRSPLEAASMGVQLGPDDVAFRVNLVNLLPTKGTLVMNDYSAGHISTEEGRELIEAIQQQIGDDEFQFYPGVGYRHLMVWRNGKSGMSATPPHDISGKSILDYLPKGEGADKLIYLMNSSQMILNNHPQYRRRLEADKIPANSIWLWGHGKAPRMEPFKEKFGLAGAVISAVDLINGIGIGAGLDVIRVEGATGYLDTNYEGKVQAALEALETHDYVYLHVEAPDEASHSGNLSHKLQAIEDFDARVVGPIMEGIRRFGSFRILCTPDHPTPLRLKTHTGAPVPFIIYDGGESEDDSIAGYDEDSARTSGLVLEEGHRLMELLLERLEHHHHHH”, the “soluble on expression in E. coli” value is recorded as “soluble”.

“MKYIVNKSHNPAFNIALEAYAFRELVEEDELFILWINEPAIIIGKHQNTIQEINKEYIDEHGIHVVRRLSGGGAVYHDLNNLNYTIISNKTAEGAFDFKTFSQPVIATLADLGVTANFTGRNDIEIDGKKICGNAQAYYKGRMMHHGCLLFDVDMTVLGDALKVSKDKIESKGVKSVRARVTNILNELPEKITVEEFSDKILAKMKETYPDMTEYVLSEDELAKIEQSAKEQFGSWDWTYGKAPEYTIERNVRYPAGKISTFANVENSIIKNLKIYGDFFGIKDVQDIENLLIGCKYEYRDVFERLKTIDTTQYFSRMTVEEVAKAIVS”: the “soluble on expression in E. coli” value was “not soluble”.

As to “MKYKIFASTTPQTEPVLQKLKQVLKGCEAVEKGFDYLFVLGGDGFFVSTVANYNCHNCRVVGINTGHLGFYTSFNEKDLDDNFLQKLQQCHFQRISLLEVSVNGQQHLVLNELAVYTNTAYPINIFIDGEAWEFYRGSGLLIGPRTGSTALAKSAKGAVIFPGIDVLQIIEMNPLLHPNQVTIQSPIILPKETQVEFVVKKAFNPQQFPTFYCDGRKLELPNADTTLALKLVQSTPMFNISLKTQDFINKLKSTFIKQS”, the “soluble on expression in E. coli” value is “soluble”.

Turning to “MKYKSGIFAAIHETMQGLHDIGAIDKKTMRGFDKSCLTEIKPLSGGDIKAIREKEALSQAAFAIYLNVGKNHVSAWERGVKKPSGAALKLLTIVKNKGIEAIA”, the “soluble on expression in E. coli” value is “not soluble”.

“MKYNNHDKIRDFIIIEAYMFRFKKKVKPEVDMTIKEFILLTYLFHQQENTLPFKKIVSDLCYKQSDLVQHIKVLVKHSYISKVRSKIDERNTYISISEEQREKIAERVTLFDQIIKQFNLADQSESQMIPKDSKEFLNLMMYTMYFKNIIKKHLTLSFVEFTILAIITSQNKNIVLLKDLIETIHHKYPQTVRALNNLKKQGYLIKERSTEDERKILIHMDDAQQDHAEQLLAQVNQLLADKDHLHLVFE”: the “soluble on expression in E. coli” value is on record as “soluble”.

As for “MLADKVKLSAKEILEKEFKTGVRGYKQEDVDKFLDMIIKDYETFHQEIEELQQENLQLKKQLEEASKKQPVQSNTTNFDILKRLSNLEKHVFGSKLYD”, the “soluble on expression in E. coli” value is “not soluble”.

Turning to “MLAFIRFLFAGLLLVISHAFAATVQDEHGTFTLEKTPQRIVVLELSFADALAAVDVIPIGIADDNDAKRILPEVRAHLKPWQSVGTRAQPSLEAIAALKPDLIIADSSRHAGVYIALQQIAPVLLLKSRNETYAENLQSAAIIGEMVGKKREMQARLEQHKERMAQWASQLPKGTRVAFGTSREQQFNLHTQETWTGSVLASLGLNVPAAMAGASMPSIGLEQLLAVNPAWLLVAHYREESIVKRWQQDPLWQMLTAAQKQQVASVDSNTWARMRGIFAAERIAADTVKIFHHQPLTVVK”, the “soluble on expression in E. coli” value is on record as “soluble”.

With “MLAHLEELKKNIEGDLYFDLTMRTLYATDASVYRELPLAVARPKHKQDVQKIIAFANKYKIGIIPRTAGTSLAGQVVGKGIIVDVSKYFTE”, the “soluble on expression in E. coli” value is given as “not soluble”.

Regarding “MLAKDSSLTRTGKGEIVDKDSSFTWYVGTIDEANAFIGLARVFSKDEKVRETLLEIQKMLFLVGAEPSLQKLSEKDLEWMLERVEEFERSVKKPHCFIILEKDESTAFLSVARAVVRRAERQAVRLYREGKARLLVVEWLNKLSYLLYLMILKEGGGDFEEI”, the “soluble on expression in E. coli” value is “not soluble”.

As to “MLAPKAFLDALSGHASRLFNGETPVPRSEFETQFKALLQSGFSKLDLVSREEFDSQMAVLARTRARLEALEAKMAELEGKVGGAEKAGSE”, the “soluble on expression in E. coli” value is “not soluble”.

For “MLAQCFQPNSSGIYPQEKLPLILETGVSPDYALIDSGNGKKLERYGAYRIIRPEGQALWKPALSEKHWANVDAIFTGNRDEEGVGRWYFPKKPLDETWPLSWNGLSFLGRFTSFRHVGVFPEQDAHWRFMEKQIVNATRPIKLLNLFGYTGIASLISARAGANVTHVDASKKAIAWAKANQEKAGLSDRSIRWICDDAVKFVERELRRQKTYDMILLDPPAYGRGPHGEIWQLFDHLPAMITNCRKLLSDEPLAVVLTAYSIRASFYALHTLMRDEFINLGGTVESGELILREKTTGRALSTSLFSRWIA”, the “soluble on expression in E. coli” value is “not soluble”.

With “MLARCLAFSYPASTFLIFFLRRRLSHHLWHPTYPRVLNSVRPAFRLAPFVSQKDTDMTVEQPIQVDTLVVGAGQAGVAMSEHLSKLGVPHLVLERSRVAEAWRTGRWDSLVANGPAWHDRFPGMEFDVAADAFPAKDQVADYFEAYARKFNAPIRTGVEVRKVLRNVGRPGFTVETSEGLIQAQRVVAATGPFQRPVIPPIATANDRLTQIHSAEYRNPQQLPEGAVLVVGAGSSGVQIADELQRAGRRVYLSVGAHDRPPRSYRNRDFCWWLGVLGEWDAEIAKPGREHVTIAVSGARGGQTIDFRALAHQGITLVGLTKAFAGEHVTFQADLLDNLARGDENYLALLDAADAYIARNGLDLPLEPEARRRLPDPDCVKQPILELDLQQAGITSIIWATGYAVDFSWLQVDTFSEQGKPLHQRGVSREPGVYFLGLPWLSRRGSSFIWGVWHDAKHVADHIATQRKYQAYSDARPPAATAEAPALNLSPVGAHLEHHHHHH”, the “soluble on expression in E. coli” value is on record as “not soluble”.

For “MLCLGIEGTAEKTGVGIVDEAGNVLSLRGKPLIPEKGGIHPREAAEHHAKWIPRLIAEACRDAGVELGEIGLISFSRGPGLGPALRTVATAARTLALSLDVPIVGVNHCIGHIEIGRLTTGASDPVSLYVSGGNTQVIAFNEGRYRVFGETLDIAVGNMLDQFARESGLGHPGGPVIEQLALKASEYIELPYSVKGMDISFSGLLTAALRKMEAGASLEDLAYSIQETAFSMLVEVTERALAYTEKNQVLLCGGVAVNRRLRDMLREMCQEHHVEFHMPPPEYCGDNGAMIAWLGQLVYKYRGPDALEDTTVVQRYRTDEVDVPWMRESEAGIELPPDILAKGAEANIYRGQWIGRPCIIKERISKGYRIPEIDQKLRSSRTRREARLINQAKGAGVHTPVLFDVDPDGGVMVMEEVRGTPFRDAVEDTELCSRIGEAIGRLHHAGIIHGDLTGSNIIIRGGDVVFIDFGLGRFSDEIEDMGVDLLVLKKSLESTHYALAGECFSRVLEGYGKIIDADIQSKIREIESRGRYTD”, the “soluble on expression in E. coli” value was “soluble”.

As for “MLDKLGGIAVQPEALTWLLTPCRFKAELLTRIENAKTSIYIAALYLEDDEAGREILQVLMTAKANNPALDIKVLVDFHRARRGLIGHKGDSGNYLMYRKVMAEAKHPIEIMGVPVKSREFMGVLHLKGFVIDDAVIYSGASLNNIYLQQNDKYRFDRYHVIESAELARSMRAMIQRYIIADPAVTSLTQDAQQEVLPPKTDVRSFKLRLSQAQYEFNETRSGNRVTPLLGLGRKHNLLNKTVIAMVEESKDRLFICTPYFNPPYILVRALAKHLRKGKRIDIVVGDKTANDFYIPPEQDFSTIGALPYLYEQSLRKFAKRQQWAIDNGQLNIHLWKHGINSYHLKGISTDGRKHLITGSNLNPRAWALDLENGILIHDETGSWKAQFEAEQAHILEHTQRLYHYSQVDTLQSYPDPVKKIMNRIRRLKADFLLRRILLEHHHHHH”, the “soluble on expression in E. coli” value was “soluble”.

With “MLDKQTMVTAHNALPGRTTAMSIDDTHFVNGSSLTAAPQSGQQQILIGMGCFWGAERLFWQLDGVISTSVGYSGGFTPNPTYEEVCSGKTGHTEVVRVIFDPERLPLTELLRAFWERHDPTQGMRQGNDRGTQYRSAIYTFSEDQREIAEASKAAYQALLTAQHRPSITTEILPAGAYYFAETYHQQYLAKNPNGYCGLGGTGVCFPPHSTL”, the “soluble on expression in E. coli” value was “not soluble”.

For “MLDLNRKLAKLEEEGKKIKVALIGAGHMGNGMVSQMANMKGIEASIVVDINLELAHKAFTDAGIDEEIIDNVTNEKDAEIKLQEGKVLTCNDFLVACKTKSIDVVIDATGGIAIGAEIALNSILNKKHIVMLNAETDCVVGPILKKLADDAGVIFTGSAGDEPGAVMELFDFADAMGFEVRVIGKGKNNKLDLDCNPDTVREEAERKGASPHMIASFKEGTKTMVEMALMCNATGFVPDVRGGHGIEATVNEVPKKYALKSEGGVLDNYGVVDFVNGIAPGVFVVVAHKLKAVNDELKYLSMGDGPNYILYRPYHLCSLETPLSAAMAVLDHKATIVPKAGLVAEVMTIAKKDLKKGEFMDGYGAYTCYGTIEKYDVAKAMNAVPIGLISKKTKVVKDIKKGEVITYDMVEIEKDTTLYHLRQLQEKIFG”, the “soluble on expression in E. coli” value is on record as “not soluble”.

On to “MLDPARSFDIIGDVHGCALTLERLLDALGYKRVAGVWRHPRRQALFLGDIVDRGPRIREALHIVHDMVEAGQAFCIMGNHEYNALGWVTPALPGSGKAYVREHTPRHARLIDETLTQFAQHPGDWHDFVNWFYQLPLFIDAGRFRLVHACWDPRLIEPLRQQYPDGRIDEHFIQASAVSGSFADTVCNRLLRGTDMRLPDGLTLTGGDGLTRAFFRTKFWEEDPKTYGDIVFQPDALPEEVASTPLSHSQKNALLRYDEDQPMLFVGHYWRSGRPAPIRANLACLDYSAVLYGKLVAYRLDDETRIDPHKFVWVDVDRPQANQLEHHHHHH”, for which the “soluble on expression in E. coli” value was “soluble”.

With “MLDSYPGHFLPNTEAPTEEEALIALLALGGYDPDNMDGKPLTMESAVEILRKDGSALASLEEETILNLKETYVNSVGLLGKYVPKVYNGDILFFRSTVIPDWFDPISPNTWLNYLDGQIVQHDIDCRHKDLCQPGPLTEIGQVLAKYLQNKKGVSRV”, the “soluble on expression in E. coli” value is listed as “not soluble”.
